Consider four molecules from paper PMC11189301, “Structure of the human outer kinetochore KMN network complex” (Nature Structural & Molecular Biology, 2024).

The Kd is the concentration at which binding is half-saturated. Higher therefore signals a looser complex.

One assay has as its target T1, Knl1 residues 1870–2342 (human, UniProt Q8NG31 1870-2342).
T1 construct: Knl1, human, 2,342-residue protein, residues 1870-2342; coordinates traced R2097–H2342; Subunit within the KMN network cryo-EM sample; also called extended version of the Knl1 C terminus; source: High-5 insect cells, expressed and purified as part of KNL1C
T1 sequence (looked up): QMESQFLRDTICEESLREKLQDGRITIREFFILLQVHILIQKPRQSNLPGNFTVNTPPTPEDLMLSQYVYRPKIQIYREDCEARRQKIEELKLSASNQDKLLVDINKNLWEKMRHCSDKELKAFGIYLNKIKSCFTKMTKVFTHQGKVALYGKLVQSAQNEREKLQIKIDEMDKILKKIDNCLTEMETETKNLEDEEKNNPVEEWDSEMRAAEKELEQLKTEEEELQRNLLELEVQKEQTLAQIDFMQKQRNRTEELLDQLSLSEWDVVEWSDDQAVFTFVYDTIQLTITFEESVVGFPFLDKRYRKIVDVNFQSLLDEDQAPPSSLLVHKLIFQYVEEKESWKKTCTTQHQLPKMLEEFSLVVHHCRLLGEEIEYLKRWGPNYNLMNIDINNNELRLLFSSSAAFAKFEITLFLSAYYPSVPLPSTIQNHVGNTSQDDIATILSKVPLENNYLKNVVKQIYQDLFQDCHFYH
Put plainly: cryo-EM structure; NDC80C, MIS12C and KNL1C mixed 1:1:1 and run on Superose 6 in 20 mM HEPES pH 8.0, 80 mM NaCl, 1 mM MgCl2, 1 mM TCEP; about 1 mg/ml on UltrAuFoil grids; 3.0 Å (MIS12C heads 3.8 Å). The settings on record: both partners purified.

The target in the next assay is T2, Dsn1 (Homo sapiens, UniProt Q9H410 1-356).
T2 construct: Dsn1, subunit of human MIS12C; Subunit within the KMN network cryo-EM sample; residues N-terminal to Arg92 are disordered; source: High-5 insect cells, expressed and purified as part of MIS12C
T2 sequence (looked up): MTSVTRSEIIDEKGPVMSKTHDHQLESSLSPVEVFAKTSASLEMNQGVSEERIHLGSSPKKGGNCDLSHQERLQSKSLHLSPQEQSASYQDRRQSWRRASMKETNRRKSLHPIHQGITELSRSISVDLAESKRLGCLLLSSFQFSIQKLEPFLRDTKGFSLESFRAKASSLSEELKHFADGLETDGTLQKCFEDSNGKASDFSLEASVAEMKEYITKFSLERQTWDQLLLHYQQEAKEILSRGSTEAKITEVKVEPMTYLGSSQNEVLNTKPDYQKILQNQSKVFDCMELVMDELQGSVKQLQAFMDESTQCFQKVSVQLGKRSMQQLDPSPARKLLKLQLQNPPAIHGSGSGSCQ
Described as above. The settings on record: both partners purified.

The next assay has as its target T3, Mis12 (Homo sapiens, UniProt Q9H081 1-205).
T3 construct: Mis12, subunit of human MIS12C; Subunit within the KMN network cryo-EM sample; source: High-5 insect cells, expressed and purified as part of MIS12C
T3 sequence (looked up): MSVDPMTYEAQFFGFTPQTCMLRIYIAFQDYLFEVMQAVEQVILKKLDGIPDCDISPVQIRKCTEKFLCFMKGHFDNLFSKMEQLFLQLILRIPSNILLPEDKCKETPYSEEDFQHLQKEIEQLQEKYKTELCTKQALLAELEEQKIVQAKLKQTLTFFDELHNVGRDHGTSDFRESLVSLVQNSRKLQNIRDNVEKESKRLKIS
The description is as above. Conditions: both partners purified.

The target of assay [1] is T4, MIS12 complex with Nsl1 truncated at the C terminus (Nsl1 1–264; residues 265–281 deleted) (Homo sapiens, UniProt Q9H081 1-205; Q6P1K2 1-205; Q9H410 1-356; Q96IY1 1-264).
T4 construct: Mis12, subunit of human MIS12C; Pmf1, subunit of human MIS12C; Dsn1, subunit of human MIS12C; Nsl1, subunit of human MIS12C, residues 1-264; also called MIS12C^Nsl1ΔC; Nsl^1–264; source: High-5 insect cells (baculovirus), purified (Strep-Tactin, Resource S, Superdex 200); copies: + + +
T4 sequence (looked up) 1: T3 sequence (looked up)
T4 sequence (looked up) 2: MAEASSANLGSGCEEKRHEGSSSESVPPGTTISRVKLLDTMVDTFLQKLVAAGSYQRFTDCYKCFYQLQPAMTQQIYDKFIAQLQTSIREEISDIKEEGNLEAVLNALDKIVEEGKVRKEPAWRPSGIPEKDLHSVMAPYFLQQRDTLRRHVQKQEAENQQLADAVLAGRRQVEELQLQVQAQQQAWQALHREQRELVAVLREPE
T4 sequence (looked up) 3: T2 sequence (looked up)
T4 sequence (looked up) 4: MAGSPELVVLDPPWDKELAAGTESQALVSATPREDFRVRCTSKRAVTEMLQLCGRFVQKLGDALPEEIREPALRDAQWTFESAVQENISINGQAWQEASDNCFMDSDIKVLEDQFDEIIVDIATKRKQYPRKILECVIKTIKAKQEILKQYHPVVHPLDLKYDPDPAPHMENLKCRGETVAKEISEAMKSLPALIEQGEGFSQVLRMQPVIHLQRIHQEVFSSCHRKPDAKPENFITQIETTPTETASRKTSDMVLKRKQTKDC
Put plainly: SEC; MIS12C or MIS12C^Nsl1ΔC mixed with Knl1 2131–2337 or its mutants at 4 µM each; 20 mM HEPES pH 7.8, 150 mM NaCl, 0.5 mM TCEP; Superose 6; fractions on SDS-PAGE. The settings on record: both partners purified. A general note: In gel filtration, larger molecules generally elute earlier.

Assay [2] deals with T5, MIS12 complex (Mis12, Pmf1, Dsn1, Nsl1), wild type, full length (Homo sapiens, UniProt Q9H081 1-205; Q6P1K2 1-205; Q9H410 1-356; Q96IY1 1-281).
T5 construct: Mis12, subunit of human MIS12C; Pmf1, subunit of human MIS12C; Dsn1, subunit of human MIS12C; Nsl1, subunit of human MIS12C; The DS tag on Pmf1 is TEV cleavable; a cleavage is not described; also called MIS12C (WT); wild-type MIS12C; source: High-5 insect cells (baculovirus), purified (Strep-Tactin, Resource S, Superdex 200); copies: + + +
T5 sequence (looked up) 1: T3 sequence (looked up)
T5 sequence (looked up) 2: T4 sequence (looked up) 2
T5 sequence (looked up) 3: T2 sequence (looked up)
T5 sequence (looked up) 4: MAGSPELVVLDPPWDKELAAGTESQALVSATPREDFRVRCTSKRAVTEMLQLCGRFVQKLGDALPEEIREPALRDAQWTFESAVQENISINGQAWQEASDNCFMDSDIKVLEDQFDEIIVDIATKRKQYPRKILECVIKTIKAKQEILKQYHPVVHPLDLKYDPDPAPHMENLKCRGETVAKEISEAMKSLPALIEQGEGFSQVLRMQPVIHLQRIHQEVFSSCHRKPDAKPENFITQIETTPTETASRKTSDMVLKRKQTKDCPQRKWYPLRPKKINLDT
The description is as above. The settings on record: both partners purified.

The target of assay [3] is T5, MIS12 complex (Mis12, Pmf1, Dsn1, …). In words: cryo-EM structure; NDC80C, MIS12C and KNL1C mixed 1:1:1 and run on Superose 6 in 20 mM HEPES pH 8.0, 80 mM NaCl, 1 mM MgCl2, 1 mM TCEP; about 1 mg/ml on UltrAuFoil grids; 3.0 Å (MIS12C heads 3.8 Å). Conditions: both partners purified.
In assay [4] the target is T6, MIS12 complex (Mis12, Pmf1, Dsn1, Nsl1), wild type, full length (Homo sapiens, UniProt Q9H081 1-205; Q6P1K2 1-205; Q9H410 1-356; Q96IY1 1-281).
T6 chain 1: T3 sequence (looked up)
T6 chain 2: T4 sequence (looked up) 2
T6 chain 3: T2 sequence (looked up)
T6 chain 4: T5 sequence (looked up) 4
Put plainly: ITC. A general note: Isothermal titration calorimetry measures the heat released or taken up as one component is titrated into another.

Assay [5] addresses MIS12 complex with Dsn1 residues 6–113 deleted (Homo sapiens, UniProt Q9H081 1-205; Q6P1K2 1-205; Q9H410 1-356; Q96IY1 1-281, 6–113 residues deleted). Put plainly: ITC.
In assay [6] the target is T5, MIS12 complex (Mis12, Pmf1, Dsn1, …). In words: ITC; peptide in the syringe titrated into the MIS12C variant in the cell; 20 °C; 20 mM HEPES pH 7.5, 100 mM NaCl, 1 mM TCEP; single-site binding model; duplicate or triplicate. The settings on record: both partners purified.
The target in assay [7] is T7, MIS12 complex with Dsn1 residues 6–113 deleted (Homo sapiens, UniProt Q9H081 1-205; Q6P1K2 1-205; Q9H410 1-356; Q96IY1 1-281, 6–113 residues deleted).
T7 construct: Mis12, subunit of human MIS12C; Pmf1, subunit of human MIS12C; Nsl1, subunit of human MIS12C; also called MIS12C^Dsn1ΔN; MIS12C^ΔN-Dsn1; source: High-5 insect cells (baculovirus), purified (Strep-Tactin, Resource S, Superdex 200); copies: + + +
T7 sequence (looked up) 1: T3 sequence (looked up)
T7 sequence (looked up) 2: T4 sequence (looked up) 2
T7 sequence (looked up) 3: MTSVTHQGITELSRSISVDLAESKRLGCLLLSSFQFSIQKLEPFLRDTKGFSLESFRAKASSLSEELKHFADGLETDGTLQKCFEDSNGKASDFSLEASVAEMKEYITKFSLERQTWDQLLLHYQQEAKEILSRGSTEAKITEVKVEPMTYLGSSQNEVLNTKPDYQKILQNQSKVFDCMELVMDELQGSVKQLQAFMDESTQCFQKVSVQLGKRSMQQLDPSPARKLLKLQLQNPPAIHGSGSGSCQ
T7 sequence (looked up) 4: T5 sequence (looked up) 4
The assay is described as above. Conditions: both partners purified.

B1: Pmf1 (natural protein, Homo sapiens, UniProt Q6P1K2 1-205, looked up)
chain: T4 sequence (looked up) 2
notes: Pmf1, subunit of human MIS12C; Subunit within the KMN network cryo-EM sample; source: High-5 insect cells, expressed and purified as part of MIS12C
As for B1, the binding result in the assay with Knl1 residues 1870–2342, in the assay with Dsn1 and in the assay with Mis12 was “binds” in each case.

B2: Knl1 RWD domains, residues 2131–2337, wild type (domain or fragment, H. sapiens, UniProt Q8NG31 2131-2337, looked up)
chain: SLSEWDVVEWSDDQAVFTFVYDTIQLTITFEESVVGFPFLDKRYRKIVDVNFQSLLDEDQAPPSSLLVHKLIFQYVEEKESWKKTCTTQHQLPKMLEEFSLVVHHCRLLGEEIEYLKRWGPNYNLMNIDINNNELRLLFSSSAAFAKFEITLFLSAYYPSVPLPSTIQNHVGNTSQDDIATILSKVPLENNYLKNVVKQIYQDLFQD
notes: Knl1, human, residues 2131-2337 (tandem RWD domains); also called Knl1^2131–2337; wild-type KNL1; source: E. coli BL21 (DE3), purified (Ni-NTA, reverse IMAC, Superdex 75); not shown: His6, N-terminal, cleaved
With B2, the binding result in [1] and in assay [2] was “binds” each time.

B3: KNL1 complex (Knl1 residues 1870–2342 with ZWINT) (complex, human)
chain 1: T1 sequence (looked up)
chain 2: MEAAETEAEAAALEVLAEVAGILEPVGLQEEAELPAKILVEFVVDSQKKDKLLCSQLQVADFLQNILAQEDTAKGLDPLASEDTSRQKAIAAKEQWKELKATYREHVEAIKIGLTKALTQMEEAQRKRTQLREAFEQLQAKKQMAMEKRRAVQNQWQLQQEKHLQHLAEVSAEVRERKTGTQQELDRVFQKLGNLKQQAEQERDKLQRYQTFLQLLYTLQGKLLFPEAEAEAENLPDDKPQQPTRPQEQSTGDTMGRDPGVSFKAVGLQPAGDVNLP
notes: Knl1, human, 2,342-residue protein, residues 1870-2342; ZWINT, human, constitutive partner of Knl1; Amplified from cDNA; also called Knl1–ZWINT; source: High-5 insect cells (baculovirus), purified (His-tag column, Resource Q)
Regarding B3, the binding result in [3] is recorded as “binds”.

B4: Dsn1^92–113 auto-inhibitory peptide, wild type (peptide)
peptide: Ac-RRQSWRRASMKETNRRKSLHPIAW-NH2
notes: Ala-Trp added for determination of concentration by absorption at 280 nm; source: synthetic peptide (Cambridge Research Biochemicals)
On to B4, for which the Kd in assay [4] came to 214 µM; in assay [5], 4.89 µM. Also, the binding result in assay [6] was “binds”. In [7], the “fold increase in binding against wild-type MIS12C” value is 44 fold.
